Experiments:
Type in all cases: biochemical
[1] = HTP-analysis of supernatants pretreated with base (MUGal hydrolysis); conditions: challenge at pH 7.1; activity of the variant/activity of WT GLA (SEQ ID NO: 5); yeast supernatant
Method in brief: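 GLA variants were secreted by transformed INVSc1 yeast grown 66-84 h at 30° C. Supernatants were exposed to neutral-to-basic buffers (pH 7.0-9.7) at 37° C for 1-18 h, then assayed with MUGal in acidic citrate/McIlvaine buffer, with fluorescence read after quenching.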

[2] = HTP-analysis of yeast culture supernatants, no challenge (MUGal hydrolysis); conditions: activity of the variant/activity of WT GLA (SEQ ID NO: 5), yeast supernatant
Method in brief: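 GLA variants expressed in yeast INVSc1, secreted into SD-Ura broth over 66-84 h at 30° C; clarified supernatants tested without challenge. Supernatant mixed with McIlvaine buffer pH 4.8 and 2 mM MUGal (citrate/KCl, pH 4.6), 37° C for 30-180 min, carbonate-quenched, fluorescence Ex 355/Em 448 nm.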

[3] = HTP-analysis of supernatants pretreated with acid (MUGal hydrolysis); conditions: challenge at pH 4.2; activity of the variant/activity of WT GLA (SEQ ID NO: 5); yeast supernatant
Method in brief: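 GLA variants were secreted from INVSc1 yeast grown 66-84 h at 30° C. in SD-Ura with 2% glucose; supernatants were mixed with McIlvaine buffer pH 3.3-4.3 and held at 37° C. for 1-3 h. Residual activity on MUGal at pH 4.8 was then measured by fluorescence.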

| Molecule | Relative Activity of GLA Variants After Challenge at pH 7.1 [1] | Relative Activity of GLA Variants After No Challenge (NC) [2] | Relative Activity of GLA Variants After Challenge at pH 4.2 [3] |
| --- | --- | --- | --- |
| 39 (protein, Synthetic Polypeptide sequence of Variant No. 39 of mature Human GLA; VARIANT (170)..(170): Xaa = any amino acid or absent) LDNGLARTPTMGWLHWERFMCNLDCQEEPDSCISEKLFMEMAELMVSEGWKDAGYEYLCIDDCWMAPQRDSEGRLQADPQRFPHGIRQLANYVHSKGLKLGIYADVGNKTCAGFPGSFGYYDINAQTFADWGVDLLKFDGCYCDSLGNLADGYKHMSLALKQVGASSIVXCEWPLYSWPFQKPNYTEIRQYCNHWRNFADIDDSWKSIKSILDWTSENQERIVDVAGPGGWNDPDMLVIGNFGLSWNQQVTQMALWAIMAAPLFMSNDLRHISPQAKALLQDKDVIAINQDPLGKQGYQLRQGDNFEVWERPLSGLAWAVAMINRQEIGGPRSYTIAVASLGKGVACNPACFITQLLPVKRKLGFYEWTSRLRSHINPTGTVLLQLENTMQMSKDLLL | ++ (++ = >1.5 to 2.5 relative activity over WT GLA (SEQ ID NO: 5)) | + (+ = 0.5 to 1.5 relative activity over WT GLA (SEQ ID NO: 5)) | ++ (++ = >1.5 to 2.5 relative activity over WT GLA (SEQ ID NO: 5)) |
| 161 (protein, Synthetic Polypeptide sequence of Variant No. 161 of mature Human GLA) LDNGLARTPTMGWLHWERFMCNLDCQEEPDSCISEKLFMEMAELMVSEGWKDAGYEYLCIDDCWMAPQRDSEGRLQADPQRFPHGIRQLANYVHSKGLKLGIYADVGNKTCAGFPGSFGYYDIDAQTFADWGVDLLKFDGCYCDSLENLADGYKHMSLALNRTGRHIVYSCEWPLYMWPFQKPNYTEIRQYCNHWRNFADIDDSWKSIKSILDWTSFNQERIVDVAGPGGWNDPDMLVIGNFGLSWNQQVTQMALWAIMAAPLFMSNDLRHISPQAKALLQDKDVIAINQDPLGKQGYQLRQGDNFEVWERPLSGLAWAVAMINRQEIGGPRSYTIAVASLGKGVACNPACFITQLLPVKRKLGFYEWTSRLRSHINPTGTVLLQLENTMQMSKDLLL | + (+ = 0.5 to 1.5 relative activity over WT GLA (SEQ ID NO: 5)) | + (+ = 0.5 to 1.5 relative activity over WT GLA (SEQ ID NO: 5)) | + (+ = 0.5 to 1.5 relative activity over WT GLA (SEQ ID NO: 5)) |
| 163 (protein, Synthetic Polypeptide sequence of Variant No. 163 of mature Human GLA) LDNGLARTPTMGWLHWERFMCNLDCQEEPDDCISEKLFMEMAELMVSEGWKDAGYEYLCIDDCWMAPQRDSEGRLQADPQRFPHGIRQLANYVHSKGLKLGIYADVGNKTCAGFPGSFGYYDIDAQTFADWGVDLLKFDGCYCDSLENLADGYKHMSLALNRTGRSIVYSCEWPLYMWPFQKPNYTEIRQYCNHWRNFADIDDSWKSIKSILDWTSFNQERIVDVAGPGGWNDPDMLVIGNFGLSWNQQVTQMALWAIMAAPLFMSNDLRHISPQAKALLQDKDVIAINQDPLGKQGYQLRQGDNFEVWERPLSGLAWAVAMINRQEIGGPRSYTIAVASLGKGVACNPACFITQLLPVKRKLGFYEWTSRLRSHINPTGTVLLQLENTMQMSKDLLL | + (+ = 0.5 to 1.5 relative activity over WT GLA (SEQ ID NO: 5)) | + (+ = 0.5 to 1.5 relative activity over WT GLA (SEQ ID NO: 5)) | + (+ = 0.5 to 1.5 relative activity over WT GLA (SEQ ID NO: 5)) |
| 165 (protein, Synthetic Polypeptide sequence of Variant No. 165 of mature Human GLA) LDNGLARTPTMGWLHWERFMCNLDCQEEPDSCIGEKLFMEMAELMVSEGWKDAGYEYLCIDDCWMAPQRDSEGRLQADPQRFPHGIRQLANYVHSKGLKLGIYADVGNKTCAGFPGSFGYYDIDAQTFADWGVDLLKFDGCYCDSLENLADGYKHMSLALNRTGRSIVYSCEWPLYMWPFQKPNYTEIRQYCNHWRNFADIDDSWKSIKSILDWTSFNQERIVDVAGPGGWNDPDMLVIGNFGLSWNQQVTQMALWAIMAAPLFMSNDLRHISPQAKALLQDKDVIAINQDPLGKQGYQLRQGDNFEVWERPLSGLAWAVAMINRQEIGGPRSYTIAVASLGKGVACNPACFITQLLPVKRKLGFYEWTSRLRSHINPTGTVLLQLENTMQMSKDLLL | − (− = <0.5 relative activity to WT GLA (SEQ ID NO: 5)) | + (+ = 0.5 to 1.5 relative activity over WT GLA (SEQ ID NO: 5)) | − (− = <0.5 relative activity to WT GLA (SEQ ID NO: 5)) |
| 162 (protein, Synthetic Polypeptide sequence of Variant No. 162 of mature Human GLA) LDNGLARTPTMGWLHWERFMCNLDCQEEPDSCISEKLFMEMAELMVSEGWKDAGYEYLCIDDCWMAPQRDSEGRLQADPQRFPHGIRQLANYVHSKGLKLGIYADVGNKTCAGFPGSFGYYDIDAQTFADWGVDLLKFDGCYCDSLENLADGYKHMSLALNRTGRKIVYSCEWPLYMWPFQKPNYTEIRQYCNHWRNFADIDDSWKSIKSILDWTSFNQERIVDVAGPGGWNDPDMLVIGNFGLSWNQQVTQMALWAIMAAPLFMSNDLRHISPQAKALLQDKDVIAINQDPLGKQGYQLRQGDNFEVWERPLSGLAWAVAMINRQEIGGPRSYTIAVASLGKGVACNPACFITQLLPVKRKLGFYEWTSRLRSHINPTGTVLLQLENTMQMSKDLLL | + (+ = 0.5 to 1.5 relative activity over WT GLA (SEQ ID NO: 5)) | + (+ = 0.5 to 1.5 relative activity over WT GLA (SEQ ID NO: 5)) | + (+ = 0.5 to 1.5 relative activity over WT GLA (SEQ ID NO: 5)) |
| 166 (protein, Synthetic Polypeptide sequence of Variant No. 166 of mature Human GLA) LDNGLARTPTMGWLHWERFMCNLDCQEEPDSCIHEKLFMEMAELMVSEGWKDAGYEYLCIDDCWMAPQRDSEGRLQADPQRFPHGIRQLANYVHSKGLKLGIYADVGNKTCAGFPGSFGYYDIDAQTFADWGVDLLKFDGCYCDSLENLADGYKHMSLALNRTGRSIVYSCEWPLYMWPFQKPNYTEIRQYCNHWRNFADIDDSWKSIKSILDWTSFNQERIVDVAGPGGWNDPDMLVIGNFGLSWNQQVTQMALWAIMAAPLFMSNDLRHISPQAKALLQDKDVIAINQDPLGKQGYQLRQGDNFEVWERPLSGLAWAVAMINRQEIGGPRSYTIAVASLGKGVACNPACFITQLLPVKRKLGFYEWTSRLRSHINPTGTVLLQLENTRQMSKDLLL | + (+ = 0.5 to 1.5 relative activity over WT GLA (SEQ ID NO: 5)) | ++ (++ = >1.5 to 2.5 relative activity over WT GLA (SEQ ID NO: 5)) | + (+ = 0.5 to 1.5 relative activity over WT GLA (SEQ ID NO: 5)) |
| 164 (protein, Synthetic Polypeptide sequence of Variant No. 164 of mature Human GLA) LDNGLARTPTMGWLHWERFMCNLDCQEEPDSCIDEKLFMEMAELMVSEGWKDAGYEYLCIDDCWMAPQRDSEGRLQADPQRFPHGIRQLANYVHSKGLKLGIYADVGNKTCAGFPGSFGYYDIDAQTFADWGVDLLKFDGCYCDSLENLADGYKHMSLALNRTGRSIVYSCEWPLYMWPFQKPNYTEIRQYCNHWRNFADIDDSWKSIKSILDWTSFNQERIVDVAGPGGWNDPDMLVIGNFGLSWNQQVTQMALWAIMAAPLFMSNDLRHISPQAKALLQDKDVIAINQDPLGKQGYQLRQGDNFEVWERPLSGLAWAVAMINRQEIGGPRSYTIAVASLGKGVACNPACFITQLLPVKRKLGFYEWTSRLRSHINPTGTVLLQLENTMQPSKDLLL | − (− = <0.5 relative activity to WT GLA (SEQ ID NO: 5)) | + (+ = 0.5 to 1.5 relative activity over WT GLA (SEQ ID NO: 5)) | − (− = <0.5 relative activity to WT GLA (SEQ ID NO: 5)) |
| 167 (protein, Synthetic Polypeptide sequence of Variant No. 16 of mature Human GLA) LDNGLARTPTMGWLHWERFMCNLDCQEEPDSCIREKLFMEMAELMVSEGWKDAGYEYLCIDDCWMAPQRDSEGRLQADPQRFPHGIRQLANYVHSKGLKLGIYADVGNKTCAGFPGSFGYYDIDAQTFADWGVDLLKFDGCYCDSLENLADGYKHMSLALNRTGRSIVYSCEWPLYMWPFQKPNYTEIRQYCNHWRNFADIDDSWKSIKSILDWTSFNQERIVDVAGPGGWNDPDMLVIGNFGLSWNQQVTQMALWAIMAAPLFMSNDLRHISPQAKALLQDKDVIAINQDPLGKQGYQLRQGDNFEVWERPLSGLAWAVAMINRQEIGGPRSYTIAVASLGKGVACNPACFITQLLPVKRKLGFYEWTSRLRSHINPTGTVLLQLENTMQMSKDLLL | + (+ = 0.5 to 1.5 relative activity over WT GLA (SEQ ID NO: 5)) | + (+ = 0.5 to 1.5 relative activity over WT GLA (SEQ ID NO: 5)) | + (+ = 0.5 to 1.5 relative activity over WT GLA (SEQ ID NO: 5)) |

Source: patent US11278600B2, “Human alpha-galactosidase variants” (Codexis, Inc., priority 2014, dated 2022)
